This note sets out measurements from paper PMC5526998, “Structural analysis of the regulatory mechanism of MarR protein Rv2887 in M. tuberculosis” (Scientific Reports, 2017).

The target in data set [1] is T1, Rv2887 (MarR family regulator) (Mycobacterium tuberculosis H37Rv) (UniProt P9WME9).
T1 sequence: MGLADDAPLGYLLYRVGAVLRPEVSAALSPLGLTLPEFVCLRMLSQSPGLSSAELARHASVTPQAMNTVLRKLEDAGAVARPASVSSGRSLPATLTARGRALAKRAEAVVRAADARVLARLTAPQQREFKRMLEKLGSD
In words: DNase I footprinting.

For data set [2], the target named is T1, Rv2887 (MarR family regulator) (Mycobacterium tuberculosis H37Rv). In words: EMSA.
For data set [3], the target named is T2, Rv2887 (crystal with DNA) (Mycobacterium tuberculosis H37Rv, UniProt P9WME9 1-139).
T2 sequence: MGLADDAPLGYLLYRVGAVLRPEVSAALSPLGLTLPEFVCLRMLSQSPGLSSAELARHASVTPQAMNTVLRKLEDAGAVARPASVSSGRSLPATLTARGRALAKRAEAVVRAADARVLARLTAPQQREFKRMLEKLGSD
Put plainly: X-ray crystal structure (2.5 A). To be noted: protein: recombinant; tags: N-terminal 6xHis (pET-28a); chain copies: 4; blunt.

Consider “CGAACTCAAGATCCAGCGATTCAGTCATGTGTTCATATATATCAACGGCCCTGATATATGTCAACACAGTTGACATTCGCGCACCCTTGGTTGCCGGCCGTCAGCTGAACGGCGGTCGTCGATCGACGAGCCGGGACAATTGACCGCCACCGCGCCACACCCGCGCCACCCAGTCGCGGTCGTCGTCGGTGACCAGATTGGACATCACCCGCACGGCGATGTTCATCAATGCGGTGGAGCGCATCGTGATGGGC (double strand) [Rv0560c upstream probe (6-FAM)]”, for which, in data set [1], the binding entry is “binds”. Take “CGAACTCAAGATCCAGCGATTCAGTCATGTGTTCATATATATCAACGGCCCTGATATATGTCAACACAGTTGACATTCGCGCACCCTTGGTTGCCGGCCGTCAGCTGAACGGCGGTCGTCGATCGACGAGCCGGGACAATTGACCGCCACCGCGCCACACCCGCGCCACCCAGTCGCGGTCGTCGTCGGTGACCAGATTGGACATCACCCGCACGGCGATGTTCATCAATGCGGTGGAGCGCATCGTGATGGGC (double strand) [Rv0560c upstream probe (biotin)]”: the binding result in data set [2] is “binds”.

B1: 30 bp Rv0560c operator duplex (dsDNA)
DNA 1: CGATCGACGACCGCCGTTCAGCTGACGTCG
DNA 2: CGACGTCAGCTGAACGGCGGTCGTCGATCG
On to B1, for which the binding result in data set [3] was “binds”.
